Laboratory results: the supplement of paper PMC9170038

Tested on: MS2 coat protein
Test: apparent KD of MS2 coat protein; designed switch direction (-1 OFF switch, 1 ON switch): -1; higher = weaker reporter binding
In short: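 Designed RNA switches with common flanks were transcribed on Illumina chips by stalled E. coli RNA polymerase and titrated with SNAP-549-labelled MS2 coat protein, from 0.7 or 1.5 nM doubling to 3 µM, in Tris-HCl pH 7.5 buffer with KCl, MgCl2, BSA, DTT, tRNA and Tween-20. Steps lasted 0.8–1.5 h (lowest) to 10–20 min (highest). Titrations ran without input, with 200 uM small-molecule ligand, or with an oligonucleotide input. Normalised cluster fluorescence was curve-fitted, and apparent KD is the per-design median over clusters.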

[1] = input ligand: microRNA oligo, concentration not stated
[2] = Eterna round: R95, input ligand: FMN 200 uM
[3] = Eterna round: R95, input ligand: microRNA oligo, concentration not stated
[4] = Eterna round: R95, input ligand: none

## GAGCCAUCGUGAGAUGGCUCAAUUACAUGAGGAUCACCCAUGUAGGAUAUCGAUUGCUUUGCAGUCGAGAAGGACAUGUUUAAU [JL ENG3 3.00] (Eterna round: R96, puzzle: Exclusion NG 3)
Input ligand: FMN 200 uM
  apparent KD of MS2 coat protein: 0.0674 µM
[1]
  apparent KD of MS2 coat protein: 0.0258 µM
Input ligand: none
  apparent KD of MS2 coat protein: 0.0303 µM

## UUGGAUAUCUAUGGGAGUAACAUGAGGAUCACCCAUGUAUGUCUUGUUUUUUGUUCGUCAUAGGCCAUUUGAUUGGA [JR_SV3TOV1_Sub025] (puzzle: Sensor v3, turn-off variant 1)
[2]
  apparent KD of MS2 coat protein: 0.0788 µM
[3]
  apparent KD of MS2 coat protein: 0.14 µM
[4]
  apparent KD of MS2 coat protein: 0.0946 µM

## GAAAAGUGAGGAUAUGGUAAAAGAAAAAGAAAAAGAAAACUCCAGAAGGCACAUGAGGAUCACCCAUGUGAAAG [salish99_ex4_r3_006] (puzzle: Exclusion 4)
[2]
  apparent KD of MS2 coat protein: 0.0157 µM
[3]
  apparent KD of MS2 coat protein: 0.0162 µM
[4]
  apparent KD of MS2 coat protein: 0.0158 µM

## UGACAGCUAGGAUAUGGGCGUGCUUACAUGAGGAUCACCCAUGUGGUAUCUGAGUAGCACCCAGAAGGAGCCCGCG [Eternabot (L2) Solution 87] (Eterna round: R97, puzzle: Exclusion 5)
Input ligand: FMN 200 uM
  apparent KD of MS2 coat protein: 1.35 µM
Input ligand: none
  apparent KD of MS2 coat protein: 0.656 µM

## AACUCACAUGAGGAUCACCCAUGUGAGGAUAUGGUUUCGCUGGCCGUAGCCAGUGGAACCAGAAGGCGCGUGAU [Mat - Exclusion 1 - JL Mod - D26] (Eterna round: R97, puzzle: Exclusion 1)
Input ligand: FMN 200 uM
  apparent KD of MS2 coat protein: 0.0524 µM
Input ligand: none
  apparent KD of MS2 coat protein: 0.0589 µM

## GAGGAACAUGAGGAUCACCCAUGUAAGGAUAUGCAAAGAGAGAAAGAAGAAGGAGAAAGCAGAAGGUACAAGGA [JR_Exclu1_Sub073] (puzzle: Exclusion 1)
[2]
  apparent KD of MS2 coat protein: 0.0427 µM
[3]
  apparent KD of MS2 coat protein: 0.0351 µM
[4]
  apparent KD of MS2 coat protein: 0.0542 µM

## AAAUACAAGUAGAGAUUCUACAUGAGGAUCACCCAUGUGCUCGUCUUAUAAAGUACUAUCACGAAAGUGAUAGUACA [Sensor 3, v1 - 37] (puzzle: Sensor v3, turn-off variant 1)
[2]
  apparent KD of MS2 coat protein: 0.0142 µM
[3]
  apparent KD of MS2 coat protein: 0.211 µM
[4]
  apparent KD of MS2 coat protein: 0.0141 µM

## UAAAAGGUAGGAUAUACGAAAAAAAAGGGUAGAAAAAAAACACAUGAGGAUCACCCAUGUAGAAGGACCAAAAU [salish99_ex2_r3_041] (puzzle: Exclusion 2)
[2]
  apparent KD of MS2 coat protein: 0.0897 µM
[3]
  apparent KD of MS2 coat protein: 0.0286 µM
[4]
  apparent KD of MS2 coat protein: 0.0269 µM

## UAUAUAUAGUAAGGAUAUGUAUUAAUGUUAUAAACAGAAGGUACUGACAUGAGGAUCACCCAUGUUUUAGUGUGGGCAUGUAGA [JMF's solution 78] (Eterna round: R96, puzzle: Exclusion NG 1)
[1]
  apparent KD of MS2 coat protein: 0.0738 µM

## ACAUGAGGAUCACCCAUGUGCACGUAAUGGCUCAUGUAGAGUGAGGAUAUGUGUGACGAACGAGCACAGAAGGCACAAGACUGG [Deportation 13 - Jieux - Exclusion NG 3] (Eterna round: R96, puzzle: Exclusion NG 3)
Input ligand: FMN 200 uM
  apparent KD of MS2 coat protein: 0.116 µM
[1]
  apparent KD of MS2 coat protein: 0.0673 µM
Input ligand: none
  apparent KD of MS2 coat protein: 0.0974 µM

## UUCAUGUGAGGAUAUGUGUACUGCUUUCUGUUUAGAUGUACACAGAAGGCACAUGAGGAUCACCCAUGUAGUAC [Ex4 - 3 - 31] (puzzle: Exclusion 4)
[3]
  apparent KD of MS2 coat protein: 0.0338 µM

## GGUGCGUAUGUGAGGAUAUGCUGGUCCUUGGAUCAGCAGAAGGCACAUGAGGAUCACCCAUGUGGUGUCGUGCC [salish99_Bmod_Ex4_019] (puzzle: Brourd's mod of Exclusion 4)
[3]
  apparent KD of MS2 coat protein: 0.168 µM

## GGACUAGGAGGAUAUACAUGAGGAUCACCCAUGUGUUGAUAAAGUCUACACAAUGUUAGUAGAAGGCUUAGACC [Eternabot (L2) Solution 18] (Eterna round: R97, puzzle: Exclusion 3)
Input ligand: FMN 200 uM
  apparent KD of MS2 coat protein: 0.0225 µM
Input ligand: none
  apparent KD of MS2 coat protein: 0.0175 µM

## CAGGAUAGAGGAUAUACAUAGAUACAGAUUCGUGUAAUCCUACAUGAGGAUCACCCAUGUAGAAGGCUAUCCUG [Fiskers Ex 2 - 20] (puzzle: Exclusion 2)
[3]
  apparent KD of MS2 coat protein: 0.0132 µM

## AUUAGAUGAGGAUAUACAUGGUUGCGGGUGCGGCAGGAUCUACAUGAGGAUCACCCAUGUAGAAGGCAUGUAUC [EX2 C.22] (Eterna round: R97, puzzle: Exclusion 2)
Input ligand: FMN 200 uM
  apparent KD of MS2 coat protein: 0.0163 µM
Input ligand: none
  apparent KD of MS2 coat protein: 0.0138 µM

## AUUGUUUAUGUAGGAUAUGCCUGGCGUGCCUUCGCAGAAGGACAUGAGGAUCACCCAUGUAUUGCGGUCUGCGUUCAGAUCGCG [salish99_ExNG1_r4_026] (Eterna round: R96, puzzle: Exclusion NG 1)
Input ligand: FMN 200 uM
  apparent KD of MS2 coat protein: 0.0653 µM
[1]
  apparent KD of MS2 coat protein: 0.0343 µM
Input ligand: none
  apparent KD of MS2 coat protein: 0.0475 µM

## CAGUACUGAGGAUAUACAUGAGGAUCACCCAUGUGUUCCAGCUAGGGAACUAGCAAAAGUAGAAGGCAGUACUG [salish99_ex3_r3_075] (Eterna round: R96, puzzle: Exclusion 3)
Input ligand: FMN 200 uM
  apparent KD of MS2 coat protein: 0.455 µM
[1]
  apparent KD of MS2 coat protein: 0.0204 µM
Input ligand: none
  apparent KD of MS2 coat protein: 0.025 µM

## ACAUGAGGAUCACCCAUGUCCGGCUGGUCUGUUCCGGCUGUCGAGGAUAUAGUCCGGUGUUCGCGCUAGAAGGCGGGAGCUGGA [Aenatbe mod 51] (Eterna round: R96, puzzle: Exclusion NG 3)
Input ligand: FMN 200 uM
  apparent KD of MS2 coat protein: 0.0675 µM
[1]
  apparent KD of MS2 coat protein: 0.0345 µM
Input ligand: none
  apparent KD of MS2 coat protein: 0.0462 µM

## UGAGCUCUAGUAGGAUAUGUCGGAUAUGUUGUUGAGGUUCACCCAACGACGUCAAUGACAGAAGGACAGAAGGACUCCUGCUCU [pwkr exNG2 2xFMN 1xF5.7] (Eterna round: R96, puzzle: Exclusion NG 2)
Input ligand: FMN 200 uM
  apparent KD of MS2 coat protein: 0.111 µM
[1]
  apparent KD of MS2 coat protein: 0.077 µM
Input ligand: none
  apparent KD of MS2 coat protein: 0.315 µM

## GAGUGACAUGAGGAUCACCCAUGUGAGGAUAUGCGAUGGACCAAAUUAACAAUAGAAGGCAGAAGGCGCAUAAA [Exclusion 1 V9] (puzzle: Exclusion 1)
[2]
  apparent KD of MS2 coat protein: 0.0414 µM
[3]
  apparent KD of MS2 coat protein: 0.0348 µM
[4]
  apparent KD of MS2 coat protein: 0.0411 µM

## AAAAUACGCACAGGAUAUCAAUACAUGAGGAUCACCCAUGUAACAUGGACUGGUCAGCAGAAAAGUGAGAAGGGUGCUGACGAC [Beraon] (Eterna round: R96, puzzle: Exclusion NG 2)
Input ligand: FMN 200 uM
  apparent KD of MS2 coat protein: 0.187 µM
[1]
  apparent KD of MS2 coat protein: 0.0316 µM
Input ligand: none
  apparent KD of MS2 coat protein: 0.0456 µM

## AGAGGGCGAGGAUAUGCUAAAAGUGGUGCAGUUGUUCGUCGACUUGAGGAUCACCCAAGUAGAAGGCGCACUUC [Sointeer] (Eterna round: R97, puzzle: Exclusion 2)
Input ligand: FMN 200 uM
  apparent KD of MS2 coat protein: 0.0679 µM
Input ligand: none
  apparent KD of MS2 coat protein: 0.0185 µM

## ACAUGAGGAUCACCCAUGUAAACAUGAUGGCUGAUGUAGAGCUAGGAUAUGAGUGACUAUCUAUCUCAGAAGGAGCUUGACUGG [Deportation 45 - Jieux - Exclusion NG 3] (Eterna round: R96, puzzle: Exclusion NG 3)
Input ligand: FMN 200 uM
  apparent KD of MS2 coat protein: 0.026 µM
[1]
  apparent KD of MS2 coat protein: 0.0271 µM
Input ligand: none
  apparent KD of MS2 coat protein: 0.0314 µM

## ACAUGAGGAUCACCCAUGUCGGGCUGGUCCGCUCCGGCUGUUGAGGAUAUAGCCCGGUAUCCGCGCUAGAAGGUGAGGGCCGGC [Aenatbe mod 29] (Eterna round: R96, puzzle: Exclusion NG 3)
Input ligand: FMN 200 uM
  apparent KD of MS2 coat protein: 0.0356 µM
[1]
  apparent KD of MS2 coat protein: 0.0295 µM
Input ligand: none
  apparent KD of MS2 coat protein: 0.0314 µM

## ACAAGCUUUUUGCUCGUCGAGUAGAAACGUGAGAGCGAGACAUGAGGAUCACCCAUGUAAAGGCAGUAGGUGGAGAU [JR_SV3TOV2_Sub025] (puzzle: Sensor v3, turn-off variant 2)
[2]
  apparent KD of MS2 coat protein: 0.0332 µM
[3]
  apparent KD of MS2 coat protein: 0.0432 µM
[4]
  apparent KD of MS2 coat protein: 0.0339 µM

## UUCCUACAUGAGGAUCACCCAUGUGAGGAUAUGCAUCGUAUUAUUCUCGUAUGUAGUAGCAGAAGGCGCAUUGG [Starry Exclusion 1.1] (Eterna round: R96, puzzle: Exclusion 1)
Input ligand: FMN 200 uM
  apparent KD of MS2 coat protein: 0.0825 µM
[1]
  apparent KD of MS2 coat protein: 0.0159 µM
Input ligand: none
  apparent KD of MS2 coat protein: 0.029 µM

## GCACGGUAAGUGAGGAUAUACCUCUGGAUACAGAGGUAGAAGGCACAUGAGGAUCACCCAUGUCCUAGCCGUGC [Fiskers BMX 4 - 88] (puzzle: Brourd's mod of Exclusion 4)
[3]
  apparent KD of MS2 coat protein: 0.0329 µM

## AAGUCGGCAGGAUAUACAUGAGGAUCACCCAUGUAAAUUUUUCGUUUAACUUGAAUGUGUAGAAGGGCCAUGAA [Ex3 #67] (Eterna round: R97, puzzle: Exclusion 3)
Input ligand: FMN 200 uM
  apparent KD of MS2 coat protein: 0.0258 µM
Input ligand: none
  apparent KD of MS2 coat protein: 0.0272 µM

## GUUAGUAUCUAGGAUAUCUAGUACAUAGUAUCUAGAGAAGGAGAUACAUGAGGAUCACCCAUGUUCUGUGUUCU [Exclusion 6 - 1:c] (puzzle: Exclusion 6)
[3]
  apparent KD of MS2 coat protein: 0.022 µM

## AUAUAACAUGAGGAUCACCCAUGUGAGGAUAUGCGAUAUAUAAUAAUAAUAAUAAUAAGCAGAAGGCACAAAAU [My FIrst Design] (puzzle: Exclusion 1)
[2]
  apparent KD of MS2 coat protein: 0.0602 µM
[3]
  apparent KD of MS2 coat protein: 0.0787 µM
[4]
  apparent KD of MS2 coat protein: 0.0717 µM

## CAGUACUGAGGAUAUACAUGAGGAUCACCCAUGUGUCCCAGCUAGGAAACUAGCAAAAGUAGAAGGCAGUACUG [828 mod 2 m4] (Eterna round: R97, puzzle: Exclusion 3)
Input ligand: FMN 200 uM
  apparent KD of MS2 coat protein: 0.622 µM
Input ligand: none
  apparent KD of MS2 coat protein: 0.0281 µM

## ACCAUGUUAGGAUAUGCGUGGCAUAGACCGGUCUAUCCGCGGUAGAAGGGACAUGAGGAUCACCCAUGUGCGAG [Eternabot (L2) Solution 85] (Eterna round: R97, puzzle: Exclusion 4)
Input ligand: FMN 200 uM
  apparent KD of MS2 coat protein: 0.0415 µM
Input ligand: none
  apparent KD of MS2 coat protein: 0.0323 µM

## UCAUACGUUGAGGAUAUGUCAGUUAGAAUAUUUACAGAAGGCGAUACAUGAGGAUCACCCAUGUUUAUGGGCAU [Ex-6 Malc#5] (puzzle: Exclusion 6)
[3]
  apparent KD of MS2 coat protein: 0.173 µM

## UUUAUAUAGUAAGGAUAUGUAUUAUUGUUAUCAACAGAAGGUACUGACAUGAGGAUCACCCAUGUUUUAGUGUGGGCAUGUAGU [JMF's solution 96] (Eterna round: R96, puzzle: Exclusion NG 1)
Input ligand: FMN 200 uM
  apparent KD of MS2 coat protein: 0.425 µM
[1]
  apparent KD of MS2 coat protein: 0.277 µM
Input ligand: none
  apparent KD of MS2 coat protein: 0.446 µM
